Measurements taken from patent publication US7189694B2, “Inhibitors of autophosphorylation protein kinases” (University of Florida Research Foundation, Inc., priority 2003, dated 2007).
Ends that are not written are not given here.

How the values were obtained:
[1] = molecular target: T1, JAK2 WT peptide (JAK2 autophosphorylation site 1001LPQDKEYYKVKEP) (Homo sapiens, UniProt O60674); test: ELISA binding of biotinylated JAK2 WT peptide to solid-phase peptides; settings: FIG. 1A; ELISA, peptides coated on 96-well plates
T1 construct: made in house; host or cells: chemical synthesis (Fmoc)
Procedure: Binding assays: For ELISA binding assays Tkip and other peptides to be tested were bound to 96-well plates in 0.1 M carbonate binding buffer (pH 9.6) at a final concentration of 3 μg/well (50 μl). Wells were then washed three times with wash buffer containing 0.9% NaCl and 0.05% tween-20 in PBS and blocked with 2% gelatin and 0.05% tween-20 in PBS for 1 h at room temperature. Wells were then washed three times with wash buffer and incubated with various concentrations of biotinylated JAK2 WT peptide and biotinylated P-JAK2 WT peptide for 1 h at room temperature in blocking buffer. Following incubation, wells were washed five times with wash buffer to remove any unbound biotinylated peptides. Bound biotinylated peptides were detected by incubation with a 1:500 dilution of NEUTRAVIDIN biotin binding-protein conjugated with horseradish peroxidase (Molecular Probes, Eugene, Oreg.) in blocking buffer for 1 h at room temperature. Wells were then washed five times with wash buffer and developed with a solution of o-phenylenediamine (OPD) in stable peroxidase buffer (Pierce, Rockford, Ill.). The assay was stopped with the addition of 2 M H2SO4 (50 μl) to each well. Absorbance was measured using a 450 microplate reader (Bio-rad, Hercules, Calif.) at 490 nm. Control experiments were carried out as described above in the absence of immobilized peptides.

[2] = molecular target: T2, recombinant human JAK2 (Homo sapiens, UniProt O60674); test: In vitro JAK2 kinase assay (32P, SDS-PAGE, autoradiography); assay type: biochemical; settings: peptide at 50 μM
T2 construct: purchased Upstate Biotechnology, Lake Placid, N.Y
T2 sequence (O60674 whole entry): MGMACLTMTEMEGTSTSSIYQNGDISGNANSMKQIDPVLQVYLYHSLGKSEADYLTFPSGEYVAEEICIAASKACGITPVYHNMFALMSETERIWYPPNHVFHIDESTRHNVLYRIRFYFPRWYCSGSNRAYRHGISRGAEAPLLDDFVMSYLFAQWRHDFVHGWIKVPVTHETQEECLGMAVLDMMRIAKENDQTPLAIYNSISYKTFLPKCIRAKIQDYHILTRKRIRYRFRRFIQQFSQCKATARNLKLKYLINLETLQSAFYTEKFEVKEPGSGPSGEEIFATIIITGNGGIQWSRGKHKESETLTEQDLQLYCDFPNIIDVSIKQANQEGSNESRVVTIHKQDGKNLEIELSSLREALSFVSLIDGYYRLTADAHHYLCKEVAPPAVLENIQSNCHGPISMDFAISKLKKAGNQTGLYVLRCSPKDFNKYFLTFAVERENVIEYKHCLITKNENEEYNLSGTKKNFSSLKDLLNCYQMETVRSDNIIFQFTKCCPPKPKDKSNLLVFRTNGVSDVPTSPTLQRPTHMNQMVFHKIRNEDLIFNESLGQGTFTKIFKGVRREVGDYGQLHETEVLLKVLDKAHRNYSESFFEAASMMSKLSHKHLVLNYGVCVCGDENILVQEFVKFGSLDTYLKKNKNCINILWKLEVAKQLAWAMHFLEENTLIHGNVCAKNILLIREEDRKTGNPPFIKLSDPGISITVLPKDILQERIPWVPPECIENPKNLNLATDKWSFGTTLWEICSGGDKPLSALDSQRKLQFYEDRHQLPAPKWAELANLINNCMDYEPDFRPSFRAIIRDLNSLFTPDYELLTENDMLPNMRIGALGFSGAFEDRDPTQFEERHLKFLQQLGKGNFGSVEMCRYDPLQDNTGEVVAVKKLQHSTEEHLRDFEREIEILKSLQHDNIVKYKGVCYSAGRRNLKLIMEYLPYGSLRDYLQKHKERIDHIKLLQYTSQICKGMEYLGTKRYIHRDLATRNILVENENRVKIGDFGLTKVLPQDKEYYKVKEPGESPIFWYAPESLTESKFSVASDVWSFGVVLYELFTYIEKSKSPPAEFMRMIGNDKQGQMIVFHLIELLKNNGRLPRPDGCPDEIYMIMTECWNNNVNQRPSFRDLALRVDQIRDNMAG
Procedure: Determination of JAK2 autophosphorylation activity was performed in reaction mixtures containing recombinant human JAK2 immobilized on agarose beads (Upstate Biotechnology, Lake Placid, N.Y.), 1 μCi/μl of [^32P]γ-ATP (Amersham Biosciences, Piscataway, N.J.), and either Tkip or JAK 2 WT peptide incubated in kinase buffer (10 mM HEPES [pH 7.4], 50 mM sodium chloride, 0.1 mM sodium orthovanadate, 5 mM magnesium chloride, 5 mM manganese chloride). JAK2 kinase assays were performed in 35 μL reaction volumes containing 10.5 μL Tkip, 20 μL JAK2 agarose beads, 1 μL sIFNGR-1, and 3.5 μL [^32P]γ-ATP incubated at 30° C. for 30 min with intermittent agitation. […] EGFR, VEGFR, and JAK2 kinase reactions were terminated with the addition of 5 μl 6×SDS sample buffer (0.5 M Tris-HCl [pH 6.8], 36% glycerol, 10% SDS, 9.3% DTT, 0.012% bromophenol blue). Incubation of JAK2 agarose beads in SDS sample buffer (100° C.) was designed to elute bound proteins from the agarose beads. The reaction mixtures were separated on a 10% SDS polyacrilamide gel. Autoradiography was used to determine phosphorylation activity.

[3] = tested on: biotinylated JAK2 WT peptide binding to Tkip peptide; test: ELISA peptide competition for biotinylated JAK2 WT binding to Tkip; set-up: species or system human; settings: FIG. 1B; unlabeled competitor peptide
Procedure: Peptide competition experiments were conducted using peptides derived from the JAK tyrosine kinase family, vascular endothelial growth factor receptor (VEGFR), and cyclin dependent kinase (CDK) to compete with biotinylated JAK2 WT peptide for binding to Tkip. Binding of biotinylated JAK2 WT was determined as above, except that following Tkip peptide immobilization, washing, and blocking in blocking buffer for 1 hr at room temperature unlabeled competitors were added to wells and incubated for 30 min at varying concentrations before biotinylated JAK2 WT peptide was incubated for 1 hr in each well to determine the extent of competition with unlabeled peptides. Detection and analysis of binding was carried out as described above.

[4] = tested on: MHC class I expression on WISH cells; test: Flow cytometry of IFN-γ induced MHC class I expression on WISH cells; assay type: cell-based, human
Procedure: Flow Cytometry: WISH fibroblast cells (2×10^6) were incubated for 48 h with media alone, 25 μM MuIFNγ(95–125) peptide, or lipophilic Tkip (LT) at varying concentrations (1 μM, 10 μM, 25 μM) in the presence or absence of 5000 units/ml IFN-γ in 6-well culture plates at 37° C. in a 5% CO2 atmosphere. Following incubation, cells were washed twice with PBS and harvested by trypsinization into two sets of 5-ml round bottom polystyrene tubes (Fisher, Pittsburgh, Pa.) and washed twice with PBS. For cell surface staining a direct immunofluorescence protocol was employed. […] The fluorescent-conjugated isotype antibody was used to determine background fluorescence by identifying nonspecific binding of the monoclonal antibody to WISH cells. […] WISH fibroblast cells were finally resuspended in 500 μl of PBS and analyzed on a FACScan fluorescence-activated cell sorter (Becton Dickinson, San Jose, Calif.). […] The red fluorescence of R-PE was excited at 488 nm. […] The fluorescence intensity of the negative controls were subtracted from the mean fluorescence for the R-PE labeled cells. […] Flow cytometry data were analyzed using CellQuest analysis software (Becton Dickinson, San Jose, Calif.).

Substance | binding of biotinylated JAK2 WT peptide to solid-phase peptide [1] | inhibition of biotinylated JAK2 WT peptide binding to Tkip peptide [3] | also measured
AKFEVNNPQVQRQAFNELIRVVHQLLPESSL (amino acid sequence of a peptide used for control purposes) [IFN-γ95–125] | negligible |  | 
EMLVLLMALKLLA (amino acid sequence of a peptide that can be used according to the present invention) |  |  | inhibition of JAK2 autophosphorylation [2]: inhibited autophosphorylation of JAK2 (lane 7 of FIG. 4, upper panel), although it was not as effective as the Tkip peptide
KTEGVPSTAIREISLLKELNH (amino acid sequence of a peptide used for control purposes) [CDK 41–61, cyclin-dependent kinase, cyclin box peptide 41–61] | negligible | neither CDK 41–61 nor VEGFR 1208–1222, inhibited | 
LPQDKEYYKVKEP (amino acid sequence of a peptide used for control purposes) [JAK2 WT, JAK2 autophosphorylation site peptide, residues 1001-1013; control peptide, reference compound] |  | inhibited | inhibition of JAK2 autophosphorylation [2]: had no effect; inhibition of JAK2 phosphorylation of IFNGR-1 [2]: had no effect
NGVLFLMIFHFLG (amino acid sequence of a peptide that can be used according to the present invention) |  |  | inhibition of JAK2 phosphorylation of IFNGR-1 [2]: did inhibit
SSDVRYVNAFKFM (amino acid sequence of a peptide used for control purposes) [VEGFR 1208–1222, vascular endothelial growth factor receptor autophosphorylation peptide] | negligible | neither CDK 41–61 nor VEGFR 1208–1222, inhibited | 
control lipophilic peptide (IFN-γ 95–125): lipophilic irrelevant peptide MuIFN-γ(95–125) (AKFEVNNPQVQRQAFNELIRVVHQLLPESSL; also: lipophilic group, site not given here; UniProt P01580 117-147, looked up, fragment) [reference compound] |  |  | effect on IFN-γ upregulation of MHC class I expression ([4]; 10 μM or 25 μM Tkip (control 25 μM), 5000 U/ml human IFN-γ, 48 h): had no effect
human IFN-γ: human gamma interferon cytokine used as stimulus |  |  | increase in MHC class I as per FACS analysis ([4]; 5000 U/ml): over 3 fold
